From paper doi:10.1101/2023.01.02.522444 (bioRxiv, 2023)

Columns and labels:
Isw1 (residues 69-1129) = Isw1 (residues 69-1129) (S. cerevisiae, UniProt P38144 69-1129); assay: cryo-EM structure
[1] = target: histone H4 (Xenopus), in the nucleosome (Xenopus, UniProt P62799 1-103); assay: cryo-EM structure

Chain of Isw1 (residues 69-1129) (P38144 69-1129): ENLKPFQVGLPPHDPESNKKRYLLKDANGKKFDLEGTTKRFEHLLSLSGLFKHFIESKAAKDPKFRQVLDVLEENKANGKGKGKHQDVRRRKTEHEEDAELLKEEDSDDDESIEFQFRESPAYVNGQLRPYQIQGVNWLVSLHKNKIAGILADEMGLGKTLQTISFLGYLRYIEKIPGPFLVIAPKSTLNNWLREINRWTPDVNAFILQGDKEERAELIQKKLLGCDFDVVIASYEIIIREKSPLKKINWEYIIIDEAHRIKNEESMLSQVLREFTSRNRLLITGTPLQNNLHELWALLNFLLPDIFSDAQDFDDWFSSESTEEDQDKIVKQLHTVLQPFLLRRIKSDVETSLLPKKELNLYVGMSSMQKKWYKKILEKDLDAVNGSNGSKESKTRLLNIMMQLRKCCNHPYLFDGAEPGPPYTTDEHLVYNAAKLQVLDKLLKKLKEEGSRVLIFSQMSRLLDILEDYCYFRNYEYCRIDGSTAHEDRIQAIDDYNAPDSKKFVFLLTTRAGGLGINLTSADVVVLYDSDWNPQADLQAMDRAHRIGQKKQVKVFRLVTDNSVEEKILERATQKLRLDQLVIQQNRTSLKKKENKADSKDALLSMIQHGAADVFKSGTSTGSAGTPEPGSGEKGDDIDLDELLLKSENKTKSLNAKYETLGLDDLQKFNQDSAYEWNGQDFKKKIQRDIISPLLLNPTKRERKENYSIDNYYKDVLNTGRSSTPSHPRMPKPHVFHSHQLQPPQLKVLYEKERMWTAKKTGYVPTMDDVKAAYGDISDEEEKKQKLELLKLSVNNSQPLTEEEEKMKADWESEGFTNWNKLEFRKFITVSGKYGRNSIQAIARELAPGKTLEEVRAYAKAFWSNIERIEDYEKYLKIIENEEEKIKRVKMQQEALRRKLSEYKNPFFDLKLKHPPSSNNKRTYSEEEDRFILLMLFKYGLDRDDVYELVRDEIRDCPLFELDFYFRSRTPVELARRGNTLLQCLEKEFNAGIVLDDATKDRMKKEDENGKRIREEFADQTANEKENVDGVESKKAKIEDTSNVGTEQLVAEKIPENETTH

binding result (Isw1 (residues 69-1129)): binds
binding result [1]: binds
B1: Ioc3 (residues 127-749) (domain or fragment)
chain: VAPKPKPAHEQVEPALIPSNWTSVIPLLTSDFKNQYSVISRLKNPNMKPVPYAGDIIKLMAFINKFSSFFHSDLQNLSFQDFEVGLDLYPGDPNGSAAGIVKGPEDTSLLLYPDFMAIKDIVYCQDKMNLLFLSLLDLTFTENFDGKSAKKKGPLTTWENLKSSSKKVFSNPLYRLRLVAREWGYPREWRQQLPSDQDISKPKTALFEQDEQTPVVDPSHPEILTPNIYTWNANEPLPLESNPLYNREMDKNGILALKPMDRVVLLRALTDWCASHSSAIHDEIYKLTHGKKDPVFGIQTQQVPRYTIEGVDNTINQFKKLCSLIQSRYEIRSKKKHFVKQLKEGKKPDLSRKLEILKEIKAELKNAVKSEKDELLFSLYDKWVPLFEGELPDQPLANPFSERLYKLRLQEFFLGRVPHIGDFYMPRLHSYGDSLEMSTFTDLRNLQALLSKFKNNEYNAFTLFENDGQSMSAQFKLFYHDTPSLAHDVARGRNTSGKVYWYELCHDSATLLEFLEFLDYKIVKPQDEKKEGNEKEKEALNNEAHILEQKSTTDNNPSINTNPLPKDAKYNTARKKLQILKEFLSDYYFILRQFEQMKVQFADMKPGKRQLRRIQRQTVNYNT
